Experimental data as given in the supplement of paper PMC9876800.

System: peptide library, one residue held at a place counted from the S/T acceptor
Assay: relative phosphorylation of the sub-library (ratio to the mean residue at this position); higher = residue favoured
Conditions: human
Outline: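 Relative sub-library phosphorylation, a ratio to the mean residue at that position, was obtained by phosphorimaging and densitometry of spots on streptavidin membranes. Before capture, purified recombinant kinases were incubated for 90 min under kinase-specific conditions with 50 μM biotinylated degenerate peptide sub-libraries and 50 μM ATP spiked with γ-32P-ATP. Each sub-library fixed one residue at one position around a central Ser/Thr.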

Chain of PHKG2, construct: aa6-293 (P15735 6-293, looked up): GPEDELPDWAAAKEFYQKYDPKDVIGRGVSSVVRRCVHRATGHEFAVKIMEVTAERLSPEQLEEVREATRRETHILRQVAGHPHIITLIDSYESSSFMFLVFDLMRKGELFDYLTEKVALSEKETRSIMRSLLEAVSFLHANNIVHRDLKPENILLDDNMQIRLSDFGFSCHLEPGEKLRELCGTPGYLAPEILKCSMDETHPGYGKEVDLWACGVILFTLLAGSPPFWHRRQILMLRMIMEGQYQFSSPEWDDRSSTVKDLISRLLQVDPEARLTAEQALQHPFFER

PHKG2, construct: aa6-293 (from UniProt P15735)
relative phosphorylation
Conditions | at +1 | at +2 | at +3 | at +4 | at -1 | at -2 | at -3 | at -4 | at -5
A fixed | 0.436 | 0.632 | 0.881 | 0.674 | 0.927 | 0.973 | 0.741 | 0.731 | 0.93
D fixed | 0.155 | 0.214 | 0.222 | 0.297 | 0.609 | 0.353 | 0.242 | 0.326 | 0.364
E fixed | 0.198 | 0.157 | 0.301 | 0.246 | 0.389 | 0.466 | 0.3 | 0.561 | 0.38
F fixed | 2.96 | 1.28 | 1.04 | 1.21 | 1.07 | 0.891 | 0.368 | 0.797 | 1.1
G fixed | 0.369 | 0.579 | 0.828 | 0.774 | 0.977 | 0.985 | 0.578 | 0.833 | 0.768
H fixed | 0.681 | 1.43 | 1.12 | 0.916 | 0.871 | 0.867 | 0.899 | 1.15 | 0.999
I fixed | 1.63 | 0.694 | 0.929 | 0.743 | 0.772 | 0.711 | 0.562 | 1.19 | 1.16
K fixed | 0.664 | 2.43 | 1.79 | 1.95 | 1.84 | 1.5 | 3.76 | 1.84 | 1.73
L fixed | 1.72 | 0.642 | 0.976 | 1.06 | 0.888 | 0.853 | 0.454 | 0.991 | 1.26
M fixed | 1.77 | 0.757 | 0.974 | 0.885 | 0.987 | 1.12 | 0.576 | 1.13 | 0.958
N fixed | 0.403 | 0.694 | 0.792 | 0.753 | 1.15 | 1.13 | 0.538 | 0.849 | 0.761
P fixed | 0.107 | 0.267 | 0.616 | 0.556 | 1.11 | 0.528 | 0.422 | 0.587 | 0.706
Q fixed | 0.593 | 0.601 | 0.851 | 1.02 | 0.917 | 1.72 | 0.77 | 0.878 | 0.776
R fixed | 0.997 | 3.32 | 2.61 | 2.71 | 1.84 | 2.48 | 5.1 | 1.98 | 1.85
V fixed | 0.896 | 0.574 | 0.856 | 0.719 | 0.9 | 0.778 | 0.477 | 0.922 | 1.15
W fixed | 2.03 | 1.56 | 1.2 | 1.48 | 0.751 | 0.861 | 0.556 | 0.996 | 0.926
Y fixed | 1.4 | 1.16 | 1.01 | 1.01 | 0.998 | 0.795 | 0.663 | 1.23 | 1.19
pThr fixed | 0.353 | 0.302 | 0.378 | 0.285 | 0.558 | 0.0668 | 0.449 | 0.505 | 0.678
pTyr fixed | 0.404 | 0.369 | 0.462 | 0.307 | 0.755 | 0.637 | 0.517 | 0.746 | 0.63
